# In patent US20190134153A1, “IMMUNOMODULATORY EFFECT OF INHALED KINASE INHIBITOR PEPTIDES IN LUNG” (MOERAE MATRIX, INC., priority 2017, published 2019):
# How the values were obtained:
# Test in all cases: Kinase Profiling Assay
# Format in all cases: biochemical
# Details in all cases: 100 μM
# ASK1(h) = biological target: T1, ASK1(h) (Homo sapiens, UniProt Q99683)
# T1 sequence (Q99683 1-1374): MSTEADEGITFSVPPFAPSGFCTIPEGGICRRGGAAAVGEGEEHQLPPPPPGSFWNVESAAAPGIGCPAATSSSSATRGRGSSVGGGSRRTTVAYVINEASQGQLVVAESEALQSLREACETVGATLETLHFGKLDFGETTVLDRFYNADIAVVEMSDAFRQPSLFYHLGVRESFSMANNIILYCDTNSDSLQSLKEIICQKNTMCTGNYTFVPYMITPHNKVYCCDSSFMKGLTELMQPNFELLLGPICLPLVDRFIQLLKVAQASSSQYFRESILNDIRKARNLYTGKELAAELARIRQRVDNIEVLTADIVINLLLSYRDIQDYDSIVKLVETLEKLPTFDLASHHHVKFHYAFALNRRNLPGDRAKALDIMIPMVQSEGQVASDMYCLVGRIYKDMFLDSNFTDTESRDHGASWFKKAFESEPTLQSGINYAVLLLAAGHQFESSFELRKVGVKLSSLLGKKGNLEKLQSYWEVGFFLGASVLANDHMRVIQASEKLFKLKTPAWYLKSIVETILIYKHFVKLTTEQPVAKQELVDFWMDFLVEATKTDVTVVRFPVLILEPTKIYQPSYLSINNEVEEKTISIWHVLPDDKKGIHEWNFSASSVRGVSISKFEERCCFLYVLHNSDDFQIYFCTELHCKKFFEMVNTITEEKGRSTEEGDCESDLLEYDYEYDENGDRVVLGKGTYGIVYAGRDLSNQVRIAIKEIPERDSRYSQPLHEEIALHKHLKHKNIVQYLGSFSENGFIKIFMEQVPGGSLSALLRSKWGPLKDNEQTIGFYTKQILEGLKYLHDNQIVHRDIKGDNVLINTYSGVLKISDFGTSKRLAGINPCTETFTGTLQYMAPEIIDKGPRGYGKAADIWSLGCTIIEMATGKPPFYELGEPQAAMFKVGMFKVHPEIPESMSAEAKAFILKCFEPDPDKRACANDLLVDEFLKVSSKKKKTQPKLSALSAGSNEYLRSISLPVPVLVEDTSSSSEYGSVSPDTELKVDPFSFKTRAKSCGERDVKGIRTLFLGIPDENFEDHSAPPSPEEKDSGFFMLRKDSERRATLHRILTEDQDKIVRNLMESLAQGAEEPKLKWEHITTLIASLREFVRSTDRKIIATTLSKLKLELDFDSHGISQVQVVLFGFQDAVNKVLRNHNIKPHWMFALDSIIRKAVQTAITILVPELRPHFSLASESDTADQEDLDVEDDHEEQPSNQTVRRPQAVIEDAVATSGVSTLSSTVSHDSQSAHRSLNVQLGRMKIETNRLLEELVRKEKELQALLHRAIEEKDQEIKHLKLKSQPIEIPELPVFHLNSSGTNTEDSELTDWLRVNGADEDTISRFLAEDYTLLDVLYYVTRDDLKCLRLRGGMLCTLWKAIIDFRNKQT
# PKCβI(h) = PKCβI(h) (Homo sapiens, UniProt P05771)
# Sequence of PKCβI(h) (P05771 whole entry): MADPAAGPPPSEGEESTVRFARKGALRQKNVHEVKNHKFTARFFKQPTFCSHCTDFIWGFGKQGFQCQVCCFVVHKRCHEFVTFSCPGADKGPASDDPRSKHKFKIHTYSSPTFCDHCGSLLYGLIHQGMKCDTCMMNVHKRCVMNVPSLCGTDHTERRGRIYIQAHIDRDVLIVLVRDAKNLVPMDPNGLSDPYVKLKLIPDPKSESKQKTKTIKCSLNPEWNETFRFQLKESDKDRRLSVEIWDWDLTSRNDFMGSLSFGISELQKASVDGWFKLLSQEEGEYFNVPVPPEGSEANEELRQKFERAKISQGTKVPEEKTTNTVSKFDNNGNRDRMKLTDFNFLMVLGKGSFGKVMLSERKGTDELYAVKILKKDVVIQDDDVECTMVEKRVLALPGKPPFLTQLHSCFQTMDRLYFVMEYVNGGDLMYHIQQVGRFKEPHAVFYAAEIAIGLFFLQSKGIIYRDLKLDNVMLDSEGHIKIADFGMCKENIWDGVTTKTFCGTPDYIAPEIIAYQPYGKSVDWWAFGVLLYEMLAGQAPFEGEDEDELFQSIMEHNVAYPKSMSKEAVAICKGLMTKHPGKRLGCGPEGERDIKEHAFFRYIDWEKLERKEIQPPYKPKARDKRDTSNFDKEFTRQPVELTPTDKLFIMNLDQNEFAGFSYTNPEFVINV
# TrkB(h) = TrkB(h) (Homo sapiens, UniProt Q16620)
# MAPKAP-K2(h) = MAPKAP-K2(h) (Homo sapiens, UniProt P49137)
# Sequence of MAPKAP-K2(h) (P49137 whole entry): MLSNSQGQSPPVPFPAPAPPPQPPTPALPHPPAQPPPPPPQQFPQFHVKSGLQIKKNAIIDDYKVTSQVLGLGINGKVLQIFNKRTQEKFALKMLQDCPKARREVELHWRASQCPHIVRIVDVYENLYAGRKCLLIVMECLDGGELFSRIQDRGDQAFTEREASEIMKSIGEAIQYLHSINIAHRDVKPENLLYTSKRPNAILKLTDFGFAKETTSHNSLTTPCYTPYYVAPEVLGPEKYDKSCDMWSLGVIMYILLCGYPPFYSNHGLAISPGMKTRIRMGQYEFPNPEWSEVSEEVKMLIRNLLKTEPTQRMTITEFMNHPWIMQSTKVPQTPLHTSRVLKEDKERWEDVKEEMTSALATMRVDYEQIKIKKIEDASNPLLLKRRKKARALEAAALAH
# ULK3(h) = biological target: T2, ULK3(h) (Homo sapiens, UniProt Q6PHR2)
# T2 sequence (Q6PHR2 1-472): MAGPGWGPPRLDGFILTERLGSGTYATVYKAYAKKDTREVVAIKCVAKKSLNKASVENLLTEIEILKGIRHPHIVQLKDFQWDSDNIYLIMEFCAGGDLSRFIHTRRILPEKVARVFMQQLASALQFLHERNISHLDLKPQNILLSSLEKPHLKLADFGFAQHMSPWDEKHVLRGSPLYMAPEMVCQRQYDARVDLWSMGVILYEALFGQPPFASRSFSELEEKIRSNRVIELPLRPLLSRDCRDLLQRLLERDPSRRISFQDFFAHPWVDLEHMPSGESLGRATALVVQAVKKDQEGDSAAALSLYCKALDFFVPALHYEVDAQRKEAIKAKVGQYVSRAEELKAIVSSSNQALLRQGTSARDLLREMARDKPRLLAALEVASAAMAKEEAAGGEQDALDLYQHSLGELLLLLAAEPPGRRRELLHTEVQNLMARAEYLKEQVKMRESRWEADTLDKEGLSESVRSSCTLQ
# BRK(h) = BRK(h) (Homo sapiens, UniProt Q13882)
# Sequence of BRK(h) (Q13882 whole entry): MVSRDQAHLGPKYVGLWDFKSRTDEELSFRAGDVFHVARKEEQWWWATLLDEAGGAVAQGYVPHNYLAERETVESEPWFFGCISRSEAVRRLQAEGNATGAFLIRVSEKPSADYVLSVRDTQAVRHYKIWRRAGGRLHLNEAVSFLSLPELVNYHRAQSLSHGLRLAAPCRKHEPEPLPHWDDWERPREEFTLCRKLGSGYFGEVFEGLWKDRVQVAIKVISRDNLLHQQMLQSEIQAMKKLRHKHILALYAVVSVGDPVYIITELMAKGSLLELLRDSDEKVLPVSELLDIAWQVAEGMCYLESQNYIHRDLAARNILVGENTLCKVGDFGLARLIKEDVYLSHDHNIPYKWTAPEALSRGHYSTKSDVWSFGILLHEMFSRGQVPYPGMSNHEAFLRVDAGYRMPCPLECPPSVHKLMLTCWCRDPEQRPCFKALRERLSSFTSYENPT
# MRCKβ(h) = MRCKβ(h) (Homo sapiens, UniProt Q9Y5S2)
# JNK3(h) = JNK3(h) (Homo sapiens, UniProt P53779)
# Sequence of JNK3(h) (P53779 whole entry): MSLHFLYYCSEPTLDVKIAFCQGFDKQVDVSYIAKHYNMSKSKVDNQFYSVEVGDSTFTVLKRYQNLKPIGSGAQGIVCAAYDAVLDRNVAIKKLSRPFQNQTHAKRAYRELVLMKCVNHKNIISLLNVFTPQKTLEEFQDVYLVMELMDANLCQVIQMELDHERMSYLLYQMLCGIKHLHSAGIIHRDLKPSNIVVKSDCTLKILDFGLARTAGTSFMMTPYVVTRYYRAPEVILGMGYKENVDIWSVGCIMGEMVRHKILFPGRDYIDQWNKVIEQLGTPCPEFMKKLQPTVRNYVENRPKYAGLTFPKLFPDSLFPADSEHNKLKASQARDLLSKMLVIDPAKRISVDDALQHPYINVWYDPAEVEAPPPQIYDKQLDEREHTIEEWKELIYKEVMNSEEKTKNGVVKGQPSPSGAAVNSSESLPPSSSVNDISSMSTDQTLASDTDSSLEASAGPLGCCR
# IGF-1R(h), activated = IGF-1R(h), activated (Homo sapiens, UniProt P08069)
# PKCθ(h) = PKCθ(h) (Homo sapiens, UniProt Q04759)
# Sequence of PKCθ(h) (Q04759 whole entry): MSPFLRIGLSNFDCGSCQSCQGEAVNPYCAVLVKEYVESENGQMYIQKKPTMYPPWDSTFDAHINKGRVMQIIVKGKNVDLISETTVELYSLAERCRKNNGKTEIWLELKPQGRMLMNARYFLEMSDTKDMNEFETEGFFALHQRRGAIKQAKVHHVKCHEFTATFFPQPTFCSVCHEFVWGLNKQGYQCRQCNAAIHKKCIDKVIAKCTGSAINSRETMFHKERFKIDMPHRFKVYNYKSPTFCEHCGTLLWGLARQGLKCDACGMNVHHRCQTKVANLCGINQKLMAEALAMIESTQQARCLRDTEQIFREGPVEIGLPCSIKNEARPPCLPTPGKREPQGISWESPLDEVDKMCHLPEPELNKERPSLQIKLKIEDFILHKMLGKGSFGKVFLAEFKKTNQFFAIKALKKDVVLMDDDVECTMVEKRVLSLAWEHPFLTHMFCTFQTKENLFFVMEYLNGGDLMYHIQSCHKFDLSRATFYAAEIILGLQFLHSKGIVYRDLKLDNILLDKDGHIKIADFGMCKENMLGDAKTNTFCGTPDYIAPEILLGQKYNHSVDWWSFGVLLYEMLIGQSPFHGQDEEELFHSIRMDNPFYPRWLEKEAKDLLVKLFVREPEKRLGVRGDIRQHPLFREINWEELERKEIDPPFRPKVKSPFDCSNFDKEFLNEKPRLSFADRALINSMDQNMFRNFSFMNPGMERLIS
# Flt4(h) = Flt4(h) (Homo sapiens, UniProt P35916)
# Sequence of Flt4(h) (P35916 25-1363): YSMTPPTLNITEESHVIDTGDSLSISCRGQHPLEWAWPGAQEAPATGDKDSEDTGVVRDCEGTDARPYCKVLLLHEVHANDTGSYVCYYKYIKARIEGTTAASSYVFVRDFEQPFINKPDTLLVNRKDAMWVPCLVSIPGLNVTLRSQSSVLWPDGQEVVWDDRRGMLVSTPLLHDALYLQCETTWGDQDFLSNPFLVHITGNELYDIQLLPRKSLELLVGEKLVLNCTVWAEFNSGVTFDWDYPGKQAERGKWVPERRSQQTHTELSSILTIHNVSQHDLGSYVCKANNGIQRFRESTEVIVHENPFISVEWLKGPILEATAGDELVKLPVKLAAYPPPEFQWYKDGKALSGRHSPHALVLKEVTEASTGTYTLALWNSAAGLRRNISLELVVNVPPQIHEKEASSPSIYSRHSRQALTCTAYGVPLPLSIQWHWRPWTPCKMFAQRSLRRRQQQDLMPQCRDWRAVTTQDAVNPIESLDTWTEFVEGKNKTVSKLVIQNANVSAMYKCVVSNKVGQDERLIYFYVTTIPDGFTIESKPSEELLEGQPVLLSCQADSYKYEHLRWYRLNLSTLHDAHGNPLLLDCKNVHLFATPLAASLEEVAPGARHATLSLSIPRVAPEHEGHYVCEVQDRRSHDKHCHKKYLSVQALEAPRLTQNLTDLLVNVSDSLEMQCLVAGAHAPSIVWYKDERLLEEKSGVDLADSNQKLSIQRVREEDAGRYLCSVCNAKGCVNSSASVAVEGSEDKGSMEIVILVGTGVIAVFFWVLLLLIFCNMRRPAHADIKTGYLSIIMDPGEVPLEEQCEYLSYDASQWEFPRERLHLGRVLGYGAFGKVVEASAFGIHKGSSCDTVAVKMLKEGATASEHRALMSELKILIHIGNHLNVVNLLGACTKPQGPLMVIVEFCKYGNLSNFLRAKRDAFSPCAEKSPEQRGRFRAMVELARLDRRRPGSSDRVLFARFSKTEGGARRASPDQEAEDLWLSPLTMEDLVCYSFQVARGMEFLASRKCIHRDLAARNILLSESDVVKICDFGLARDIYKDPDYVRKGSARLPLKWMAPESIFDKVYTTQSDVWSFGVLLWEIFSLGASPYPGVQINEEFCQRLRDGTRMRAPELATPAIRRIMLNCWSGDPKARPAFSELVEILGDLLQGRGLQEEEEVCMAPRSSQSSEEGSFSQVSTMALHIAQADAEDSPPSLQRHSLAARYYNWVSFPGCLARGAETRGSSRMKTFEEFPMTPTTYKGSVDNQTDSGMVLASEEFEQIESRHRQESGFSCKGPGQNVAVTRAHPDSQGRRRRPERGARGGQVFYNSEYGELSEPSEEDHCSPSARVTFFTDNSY
# Abl (Q252H) (h) = Abl (Q252H) (h) (Homo sapiens, UniProt P00519, Q252H)
Sequence,% activity (ASK1(h)) [%],% activity (PKCβI(h)) [%],% activity (TrkB(h)) [%],% activity (MAPKAP-K2(h)) [%],% activity (ULK3(h)) [%],% activity (BRK(h)) [%],% activity (MRCKβ(h)) [%],% activity (JNK3(h)) [%],"% activity (IGF-1R(h), activated) [%]",% activity (PKCθ(h)) [%],% activity (Flt4(h)) [%],% activity (Abl (Q252H) (h)) [%]
FAKLAARLYRKALARQLGVAA [MMI-0300],80,78,5,5,167,35,83,89,80,88,83,82
KAFAKLAARLYRKALARQLGVAA [MMI-0400],69,78,8,5,147,18,71,70,77,76,89,98
YARAAARQARAKALNRQLGVA [MMI-0200],101,98,7,35,164,127,–,90,94,101,–,–
HRRIKAWLKKIKALARQLGVAA [MMI-0500],−4,1,12,9,177,41,−10,171,45,62,73,40
